Source: patent US20220064272A1

Experiments:
[1] = molecular target: TauC3 (C-terminally truncated tau fragment ending at aspartate 421 of htau40) (human) (UniProt P10636); experiment: binding ELISA on coated TauC3, OD650; left table (HC variants); isotype control
[2] = molecular target: TauC3 (C-terminally truncated tau fragment ending at aspartate 421 of htau40) (human) (UniProt P10636); experiment: binding ELISA on coated TauC3, OD650; right table (HM variants); isotype control

TauC3 (C-terminally truncated tau fragment ending at aspartate 421 of htau40) (human), sequence (P10636 other isoform, or with tags, fused parts or gaps): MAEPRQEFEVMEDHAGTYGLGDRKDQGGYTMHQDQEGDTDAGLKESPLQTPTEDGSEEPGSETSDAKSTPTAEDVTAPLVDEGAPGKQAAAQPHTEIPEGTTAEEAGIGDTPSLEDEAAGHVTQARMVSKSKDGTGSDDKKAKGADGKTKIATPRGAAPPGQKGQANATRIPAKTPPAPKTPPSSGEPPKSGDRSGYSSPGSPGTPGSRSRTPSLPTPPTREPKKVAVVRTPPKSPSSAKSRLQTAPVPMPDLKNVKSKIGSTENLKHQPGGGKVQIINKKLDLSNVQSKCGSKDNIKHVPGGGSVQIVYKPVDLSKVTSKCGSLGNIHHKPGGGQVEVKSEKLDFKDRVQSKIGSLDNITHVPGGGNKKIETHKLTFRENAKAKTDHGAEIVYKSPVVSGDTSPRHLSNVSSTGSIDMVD

isotype control antibody
EC50 [1]: 15.5 nM
EC50 [2]: 15.5 nM
